Data set [1] concerns the molecule itself. Nature of the data set: cross-linking; detergent-free membrane fraction of sho1Δ cells expressing a Cys mutant of HA-Sho1*; 0.2 mM bifunctional thiol crosslinker (o-PDM, p-PDM or BMH), 20 min, 25 °C; SDS–PAGE, anti-HA blot.
Data set [2] deals with the molecule itself. The experiment in a line: cross-linking; spontaneous disulfide bond formation: membrane fractions without chemical crosslinker, SDS–PAGE without 2-ME, anti-HA blot.
Data set [3] concerns the molecule itself. The experiment in a line: cross-linking; membrane fraction of cells expressing a single-Cys mutant of HA-Sho1*; homo-trifunctional crosslinker TMEA; SDS–PAGE, anti-HA blot.

Positions count from the first letter of the chain named. In names and notes the source's numbering stands.

B1: HA-Sho1* T66C I94C (natural protein, Saccharomyces cerevisiae, UniProt P40073 1-367, looked up)
chain: MSISSKIRPTPRKPSRMATDHSFKMKKFYADPFAISSISLAIVSWVIAIGGSISSASTNESFPRFCWWGIVYQFLIISSLMLFYSFDLVDHYRCFITTSIAVAFVYNTNSATNLVYADGPKKAAASAGVILLSIINLIWILYYGGDNASPTNRWIDSFSIKGIRPSPLENSLHRARRRGNRNTTPYQNNVYNDAIRDSGYATQFDGYPQQQPSHTNYVSSTALAGFENTQPNTSEAVNLHLNTLQQRINSASNAKETNDNSNNQTNTNIGNTFDTDFSNGNTETTMGDTLGLYSDIGDDNFIYKAKALYPYDADDDDAYEISFEQNEILQVSDIEGRWWKARRANGETGIIPSNYVQLIDGPEEMHR
notes: Sho1, S. cerevisiae, Cys-less (C78S C85S) with Cys in TM2 and TM3; source: S. cerevisiae KT079 (sho1Δ), GAL1 promoter, in membrane fraction; not shown: HA, N-terminal, kept
Consider B1, for which the “stoichiometry N” value in data set [1] is 3.

B2: HA-Sho1* A123C (natural protein, Saccharomyces cerevisiae, UniProt P40073 1-367, looked up)
chain: B1 chain with C66T, C94I, A123C
notes: Sho1, S. cerevisiae, Cys-less (C78S C85S) with a single Cys; source: S. cerevisiae KT079 (sho1Δ), GAL1 promoter, in membrane fraction; not shown: HA, N-terminal, kept
Consider B2, for which the “stoichiometry N” value in data set [2] worked out at 2.

B3: HA-Sho1* I53C (natural protein, Saccharomyces cerevisiae, UniProt P40073 1-367, looked up)
chain: B1 chain with I53C, C66T, C94I
notes: as for B2
Turning to B3, in data set [2], the “stoichiometry N” value is 2.

B4: HA-Sho1*-A124C (natural protein, Saccharomyces cerevisiae, UniProt P40073 1-367, looked up)
chain: B1 chain with C66T, C94I, A124C
notes: Sho1, S. cerevisiae, Cys-less (C78S C85S) with a single Cys in TM4; source: S. cerevisiae KT079 (sho1Δ), GAL1 promoter, in membrane fraction; S. cerevisiae KY590-1, GAL1 promoter, in intact cells, then lysate; not shown: HA, N-terminal, kept
Regarding B4, the “stoichiometry N” value in data set [3] is 2.

B5: HA-Sho1* T66C T112C (natural protein, Saccharomyces cerevisiae, UniProt P40073 1-367, looked up)
chain: B1 chain with C94I, T112C
notes: Sho1, S. cerevisiae, Cys-less (C78S C85S) with Cys in TM2 and TM3; also called T/C T/C; source: S. cerevisiae KT079 (sho1Δ), GAL1 promoter, in membrane fraction; not shown: HA, N-terminal, kept
As to B5, the “stoichiometry N” value in data set [1] was determined as 3.

B6: HA-Sho1* N109C (natural protein, Saccharomyces cerevisiae, UniProt P40073 1-367, looked up)
chain: B1 chain with C66T, C94I, N109C
notes: as for B2
Consider B6, for which the “stoichiometry N” value in data set [2] came to 2.

B7: HA-Sho1* T66C (natural protein, Saccharomyces cerevisiae, UniProt P40073 1-367, looked up)
chain: B1 chain with C94I
notes: Sho1, S. cerevisiae, Cys-less (C78S C85S) with a single Cys in TM2; also called Sho1-FL-T66C; source: S. cerevisiae KT079 (sho1Δ), GAL1 promoter, in membrane fraction; not shown: HA, N-terminal, kept
With B7, the “stoichiometry N” value in data set [3] worked out at 3.

B8: HA-Sho1* T112C (natural protein, Saccharomyces cerevisiae, UniProt P40073 1-367, looked up)
chain: B1 chain with C66T, C94I, T112C
notes: Sho1, S. cerevisiae, Cys-less (C78S C85S) with a single Cys in TM3; source: S. cerevisiae KT079 (sho1Δ), GAL1 promoter, in membrane fraction; not shown: HA, N-terminal, kept
With B8, in data set [3], the “stoichiometry N” value worked out at 3.

B9: HA-Sho1* I94C T112C (natural protein, Saccharomyces cerevisiae, UniProt P40073 1-367, looked up)
chain: B1 chain with C66T, T112C
notes: Sho1, S. cerevisiae, Cys-less (C78S C85S) with two Cys in TM3; source: S. cerevisiae KT079 (sho1Δ), GAL1 promoter, in membrane fraction; not shown: HA, N-terminal, kept
B9: the “stoichiometry N” value in data set [1] turned out to be 3.

B10: HA-Sho1* V105C (natural protein, Saccharomyces cerevisiae, UniProt P40073 1-367, looked up)
chain: B1 chain with C66T, C94I, V105C
notes: as for B2
Consider B10, for which the “stoichiometry N” value in data set [2] was found to be 2.

B11: HA-Sho1* G50C (natural protein, Saccharomyces cerevisiae, UniProt P40073 1-367, looked up)
chain: B1 chain with G50C, C66T, C94I
notes: Sho1, S. cerevisiae, Cys-less (C78S C85S) with a single Cys in TM1; source: S. cerevisiae KT079 (sho1Δ), GAL1 promoter, in membrane fraction; in intact cells; not shown: HA, N-terminal, kept
B11: the “stoichiometry N” value in data set [3] came out at 2.

B12: HA-Sho1* S54C (natural protein, Saccharomyces cerevisiae, UniProt P40073 1-367, looked up)
chain: B1 chain with S54C, C66T, C94I
notes: as for B2
As for B12, in data set [2], the “stoichiometry N” value worked out at 2.

B13: HA-Sho1* G50C A124C (natural protein, Saccharomyces cerevisiae, UniProt P40073 1-367, looked up)
chain: B1 chain with G50C, C66T, C94I, A124C
notes: Sho1, S. cerevisiae, Cys-less (C78S C85S) with Cys in TM1 and TM4; also called G/C A/C; source: S. cerevisiae KT079 (sho1Δ), GAL1 promoter, in membrane fraction; not shown: HA, N-terminal, kept
Regarding B13, the “stoichiometry N” value in data set [1] worked out at 2.

For orientation: stoichiometry N means a count of units in the complex or per binding partner.

The record behind these values is paper PMC4411306, “Osmosensing and scaffolding functions of the oligomeric four-transmembrane domain osmosensor Sho1” (Nature Communications, 2015).
